Results: the supplement of paper PMC7877785
± gives the uncertainty stated by the source.

Test: self-splicing fitness, log relative to wild type (ln ratio); higher = more splicing; Tetrahymena group I intron in knt gene, E. coli kanamycin selection, DiMSum; sequences stand for … in CUCUCU…GGAGGGAAAAGUUAUCAGGCAUGCACCUGGUAGCUAGUCUUUAAACCAAUAGAUUGCAUCGGUUUAAAAGGCAAGACCGUCAAAUUGCGGGAAAGGGGUCAACAGCCGUUCAGUACCAAGUCUCAGGGGAAACUUUGAGAUGGCCUUGCAAAGGGUAUGGUAAUAAGCUGACGGACAUGGUCCUAACCACGCAGCCAAGUCCUAAGUCAACAGAUCUUCUGUUGAUAUGGAUGCAGUUCACAGACUAAAUGUCGGUCGGGGAAGAUGUAUUCUUCUCAUAAGAUAUAGUCGGACCUCUCCUUAAUGGGAGCUAGCGGAUGAAGUGAUGCAACACUGGAGCCGCUGGGAACUAAUUUGUAUGCGAAAGUAUAUUGAUUAGUUUUGGAGUACUCGUGGUCG
In short: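 DiMSum derived fitness as the error-weighted combination of fold changes across replicates, kanamycin versus no kanamycin, normalised to wild type. E. coli BL21(DE3) held the library, which randomised all eight P1ex-region intron nucleotides within the knt kanamycin-resistance gene on pET-22b(+). Six replicate transformations grew overnight at 37°C or 30°C on LB agar with or without 25 μg/mL kanamycin, also containing 100 μg/mL carbenicillin, 50 μM IPTG and 0.2% rhamnose, and pooled colonies were amplicon-sequenced on an Illumina HiSeq 2500.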

Sequence | self-splicing fitness (ln) (30 °C) | self-splicing fitness (ln) (37 °C)
CUCCAGCAAUAUUACGGAGA | -3.61 ± 0.27 | -2.21 ± 0.21
GUCGAGCAAUAUUACGUGGC | -3.63 ± 0.2 | -1.09 ± 0.17
UUUGAGCAAUAUUACGUUUG | -3.29 ± 0.26 | -2 ± 0.31
GUCGAGCAAUAUUACGCAUC | -2.31 ± 0.26 | -0.574 ± 0.22
UUCGAGCAAUAUUACGUGUA | -2.65 ± 0.09 | -1.86 ± 0.095
UUGAAGCAAUAUUACGUAAG | -0.735 ± 0.083 | 0.223 ± 0.12
AGGAAGCAAUAUUACGGGGC | -3.49 ± 0.26 | -2.49 ± 0.24
GUCUAGCAAUAUUACGUGCG | -1.76 ± 0.11 | -1.27 ± 0.12
CAGCAGCAAUAUUACGGUCA | -2.45 ± 0.17 | -1.22 ± 0.11
UAGUAGCAAUAUUACGCGCA | -0.614 ± 0.1 | 0.274 ± 0.11
CGGCAGCAAUAUUACGUCUU | -1.09 ± 0.066 | 0.328 ± 0.086
AUCAAGCAAUAUUACGUUAU | -2.29 ± 0.1 | -0.69 ± 0.09
UCCUAGCAAUAUUACGAUUG | -2.56 ± 0.24 | -2.49 ± 0.45
UUAUAGCAAUAUUACGUGCC | -2.08 ± 0.27 | -0.756 ± 0.35
GCGGAGCAAUAUUACGCGCA | -2.93 ± 0.3 | -0.701 ± 0.17
AGGCAGCAAUAUUACGUACC | -0.0574 ± 0.12 | 0.0331 ± 0.15
CUGAAGCAAUAUUACGUUGC | -4.09 ± 0.26 | -0.264 ± 0.2
CAGAAGCAAUAUUACGGUAA | -3.62 ± 0.25 | -2.49 ± 0.18
CCGGAGCAAUAUUACGCUAG | -3.07 ± 0.21 | -2.33 ± 0.26
CUCAAGCAAUAUUACGCGGG | -3.15 ± 0.25 | -2.42 ± 0.25
GAUGAGCAAUAUUACGUCUG | -2.66 ± 0.19 | -2.96 ± 0.28
UUUUAGCAAUAUUACGAUAA | -0.659 ± 0.14 | 0.144 ± 0.15
GCUGAGCAAUAUUACGUCAU | -3.26 ± 0.43 | -0.856 ± 0.3
UAACAGCAAUAUUACGUCUU | -1.12 ± 0.052 | -0.0714 ± 0.06

Sequence | self-splicing fitness (ln) (30 °C) | self-splicing fitness (ln) (37 °C)
GUUGAGCAAUAUUACGUACG | -2.57 ± 0.39 | -2.31 ± 0.45
AACCAGCAAUAUUACGUAAU | -1.45 ± 0.055 | -0.238 ± 0.069
GAAUAGCAAUAUUACGCGCG | -0.825 ± 0.1 | -0.591 ± 0.13
CAAAAGCAAUAUUACGGAGA | -2.88 ± 0.28 | -3.43 ± 0.3
UGUGAGCAAUAUUACGGUUC | -2.76 ± 0.21 | -2.9 ± 0.24
AACAAGCAAUAUUACGCACG | -1.31 ± 0.18 | -0.33 ± 0.18
AAAAAGCAAUAUUACGGGCA | -0.543 ± 0.081 | -0.103 ± 0.088
CUAAAGCAAUAUUACGUCUG | 0.155 ± 0.049 | 0.458 ± 0.071
UCGGAGCAAUAUUACGUUAC | -1.87 ± 0.3 | 
AUCCAGCAAUAUUACGCCUC | -1.53 ± 0.089 | -1.06 ± 0.14
AAGUAGCAAUAUUACGCCGU | -1.94 ± 0.19 | -0.462 ± 0.19
CGUCAGCAAUAUUACGCGCU | -0.602 ± 0.18 | -2.64 ± 0.32
UGAAAGCAAUAUUACGAGCA | -0.581 ± 0.089 | 0.406 ± 0.11
GUUUAGCAAUAUUACGGCGG | -3.27 ± 0.44 | 
GCUUAGCAAUAUUACGGAGG | -1.54 ± 0.1 | -0.819 ± 0.094
GGUGAGCAAUAUUACGAAAU | -2.21 ± 0.31 | -2.78 ± 0.38
CCGGAGCAAUAUUACGUAAG | -0.00724 ± 0.087 | 0.176 ± 0.13
AAGUAGCAAUAUUACGGGGC | -3.29 ± 0.3 | -3.4 ± 0.26
AACUAGCAAUAUUACGCCCG | -1.11 ± 0.18 | -0.346 ± 0.23
UUCGAGCAAUAUUACGCAAG | -1.98 ± 0.4 | -1.66 ± 0.48
UUACAGCAAUAUUACGGAUG | -2.18 ± 0.1 | -0.325 ± 0.1
UGGAAGCAAUAUUACGGCCC | -0.223 ± 0.15 | 0.256 ± 0.18
CGCGAGCAAUAUUACGUGAC |  | -2.54 ± 0.3
UCCUAGCAAUAUUACGUUAU | -2.99 ± 0.19 | -2.59 ± 0.24
